Laboratory results taken from the FLAb antibody collection.
Changes are numbered by the printed parent chain. “And” between values parts separate entries of the source, which are not always exact repeats. Equal values may be shown once.

B1: unnamed (protein)
chain 1: QVQLVQSGAEVKKPGSSVKVSCKASGYAFSYSWINWVRQAPGQGLEWMGRIFPGDGDTDYNGKFKGRVTITADKSTSTAYMELSSLRSEDTAVYYCARNVFDGYWLVYWGQGTLVTVSS
chain 2: DIVMTQTPLSLPVTPGEPASISCRSSKSLLHSNGITYLYWYLQKPGQSPQLLIYQMSNLVSGVPDRFSGSGSGTDFTLKISRVEAEDVGVYYCAQNLELPYTFGGGTKVEIK
B2: unnamed (protein)
chain 1: EVQLVESGGGLVQPGGSMRLSCVASGFPFSNYWMNWVRQAPGKGLEWVGEIRLKSNNYTTHYAESVKGRFTISRDDSKNSLYLQMNSLKTEDTAVYYCTRHYYFDYWGQGTLVTVSS
chain 2: B1 chain 2 with T7S, L11N, L38F, Y39F, V60A, K79R, Y101P, G105Q
B3: unnamed (protein)
chain 1: EVQLVESGGGLVQPGGSLRLSCAASGYTFTSYVIHWVRQAPGKGLEWVGYNNPYNAGTNYNEKFKGRFTISSDKSKNTAYLQMNSLRAEDTAVYYCSRPTMLPWFAYWGQGTLVTVSS
chain 2: DIQMTQSPSSLSASVGDRVTITCRASQAVSSAVAWYQQKPGKAPKLLIYSASHRYTGVPSRFSGSGSGTDFTLTISSLQPEDFATYYCQESYSTPWTFGQGTKVEIK
B4: unnamed (protein)
chain 1: QVQLVQSGVEVKKPGASVKVSCKASGYTFTNYYMYWVRQAPGQGLEWMGGINPSNGGTNFNEKFKNRVTLTTDSSTTTAYMELKSLQFDDTAVYYCARRDYRFDMGFDYWGQGTTVTVSS
chain 2: EIVLTQSPATLSLSPGERATLSCRASKGVSTSGYSYLHWYQQKPGQAPRLLIYLASYLESGVPARFSGSGSGTDFTLTISSLEPEDFAVYYCQHSRDLPLTFGGGTKVEIK
B5: unnamed (protein)
chain 1: EVQLVQSGAEVKKPGESLKISCKGSGRTFTSYNMHWVRQMPGKGLEWMGAIYPLTGDTSYNQKSKLQVTISADKSISTAYLQWSSLKASDTAMYYCARSTYVGGDWQFDVWGKGTTVTVSS
chain 2: EIVLTQSPGTLSLSPGERATLSCRASSSVPYIHWYQQKPGQAPRLLIYATSALASGIPDRFSGSGSGTDFTLTISRLEPEDFAVYYCQQWLSNPPTFGQGTKLEIK
B6: unnamed (protein)
chain 1: EVQLVESGGGLVQPGGSLRLSCAASGYTFIDYYMNWVRQAPGKGLEWVGDINLDNSGTHYNQKFKGRFTISRDKSKNTAYLQMNSLRAEDTAVYYCAREGVYHDYDDYAMDYWGQGTLVTVSS
chain 2: DIQMTQSPSSLSASVGDRVTITCRTSQSLVHINAITYLHWYQQKPGKAPKLLIYRVSNRFSGVPSRFSGSGSGTDFTLTISSLQPEDFATYYCGQSTHVPLTFGQGTKVEIK
B7: unnamed (protein)
chain 1: EVQLVQSGPGLVQPGGSVRISCAASGYTFTNYGMNWVKQAPGKGLEWMGWINTYTGESTYADSFKGRFTFSLDTSASAAYLQINSLRAEDTAVYYCARFAIKGDYWGQGTLLTVSS
chain 2: DIQMTQSPSSLSASVGDRVTITCRSTKSLLHSNGITYLYWYQQKPGKAPKLLIYQMSNLASGVPSRFSSSGSGTDFTLTISSLQPEDFATYYCAQNLEIPRTFGQGTKVELK
B8: unnamed (protein)
chain 1: EGQLVQSGGGLVHPGGSLRLSCAGSGFTFSSYGMHWVRQAPGKGLEWVSGIGTGGGTYSTDSVKGRFTISRDNAKNSLYLQMNSLRAEDMAVYYCARGDYYGSGSFFDCWGQGTLVTVSS
chain 2: DIQMTQSPSSLSASVGDRVTITCRASQGISSWLAWYQQKPEKAPKSLIYAASSLQSGVPSRFSGSGSGTDFTLTISSLQPEDFATYYCQQYNSYPPTFGQGTKLEIK
B9: unnamed (protein)
chain 1: EVQLVESGGGLVQPGRSLRLSCAASGFTFNDYAMHWVRQAPGKGLEWVSTISWNSGSIGYADSVKGRFTISRDNAKKSLYLQMNSLRAEDTALYYCAKDIQYGNYYYGMDVWGQGTTVTVSS
chain 2: EIVLTQSPATLSLSPGERATLSCRASQSVSSYLAWYQQKPGQAPRLLIYDASNRATGIPARFSGSGSGTDFTLTISSLEPEDFAVYYCQQRSNWPITFGQGTRLEIK
B10: unnamed (protein)
chain 1: QLQLQESGPGLVKPSETLSLTCTVSGGSINSSSYYWGWLRQSPGKGLEWIGSFFYTGSTYYNPSLRSRLTISVDTSKNQFSLMLSSVTAADTAVYYCARQSTYYYGSGNYYGWFDRWDQGTLVTVSS
chain 2: B9 chain 2 with I96P, T97A, R103K, L104V
B11: unnamed (protein)
chain 1: EVKLVESGGGLVQPGGSLRLSCATSGFTFTDYYMNWVRQPPGKALEWLGFIGNKANGYTTEYSASVKGRFTISRDKSQSILYLQMNTLRAEDSATYYCTRDRGLRFYFDYWGQGTTLTVSS
chain 2: QTVLSQSPAILSASPGEKVTMTCRASSSVTYIHWYQQKPGSSPKSWIYATSNLASGVPARFSGSGSGTSYSLTISRVEAEDAATYYCQHWSSKPPTFGGGTKLEIK
B12: unnamed (protein)
chain 1: QVQLVQSGAEVKKPGASVKVSCKASGYTFTSYWMHWVRQAPGQGLEWIGNINPSNGGTNYNEKFKSKATMTRDTSTSTAYMELSSLRSEDTAVYYCELMQGYWGQGTLVTVSS
chain 2: DIVMTQSPLSNPVTLGQPVSISCRSSKSLLYKDGKTYLNWFLQRPGQSPQLLIYLMSTRASGVPDRFSGGGSGTDFTLKISRVEAEDVGVYYCQQLVEYPLTFGQGTKLEIK
B13: unnamed (protein)
chain 1: EVQLVESGGGLVQPGGSLRLSCAASGYTFTSYNMHWVRQAPGKGLEWVGAIYPGNGDTSYNQKFKGRFTISVDKSKNTLYLQMNSLRAEDTAVYYCARVVYYSNSYWYFDVWGQGTLVTVSS
chain 2: DIQMTQSPSSLSASVGDRVTITCRASSSVSYMHWYQQKPGKAPKPLIYAPSNLASGVPSRFSGSGSGTDFTLTISSLQPEDFATYYCQQWSFNPPTFGQGTKVEIK
B14: unnamed (protein)
chain 1: QVQLQESGPGLVKPSETLSLTCTVSGGSVSSGDYYWTWIRQSPGKGLEWIGHIYYSGNTNYNPSLKSRLTISIDTSKTQFSLKLSSVTAADTAIYYCVRDRVTGAFDIWGQGTMVTVSS
chain 2: DIQMTQSPSSLSASVGDRVTITCQASQDISNYLNWYQQKPGKAPKLLIYDASNLETGVPSRFSGSGSGTDFTFTISSLQPEDIATYFCQHFDHLPLAFGGGTKVEIK
B15: unnamed (protein)
chain 1: QVQLQESGPGLVRPSQTLSLTCTASGYTFTDYVIHWVKQPPGRGLEWIGYINPYDDDTTYNQKFKGRVTMLVDTSSNTAYLRLSSVTAEDTAVYYCARRGNSYDGYFDYSMDYWGSGTPVTVSS
chain 2: DIQMTQSPSSLSASVGDRVTITCRASQNVGTAVAWLQQTPGKAPKLLIYSASNRYTGVPSRFSGSGSGTDYTFTISSLQPEDIATYYCQQYTNYPMYTFGQGTKVQIK
B16: unnamed (protein)
chain 1: EVQLVESGGGLVQPGGSLRLSCAASGFNFNDYFMNWVRQAPGKGLEWVAQMRNKNYQYGTYYAESLEGRFTISRDDSKNSLYLQMNSLKTEDTAVYYCARESYYGFTSYWGQGTLVTVSS
chain 2: DIQMTQSPSSLSASVGDRVTITCQASQDIGISLSWYQQKPGKAPKLLIYNANNLADGVPSRFSGSGSGTDFTLTISSLQPEDFATYYCLQHNSAPYTFGQGTKLEIK
B17: unnamed (protein)
chain 1: EVQLVQSGAEVKKPGESLKISCKGSGYSFTGYNMNWVRQMPGKGLEWMGNIDPYYGGTTYNRKFKGQVTISADKSISTAYLQWSSLKASDTAMYYCARSVGPFDSWGQGTLVTVSS
chain 2: EIVLTQSPATLSLSPGERATLSCRASENVYSYLAWYQQKPGQAPRLLIYFAKTLAEGIPARFSGSGSGTDFTLTISSLEPEDFAVYYCQHHSDNPWTFGQGTKVEIK
B18: unnamed (protein)
chain 1: EVQLVESGGGLVQPGGSLRLSCAASGYTFTSYWLHWVRQAPGKGLEWVGMIDPSNSDTRFNPNFKDRFTISADTSKNTAYLQMNSLRAEDTAVYYCATYRSYVTPLDYWGQGTLVTVSS
chain 2: DIQMTQSPSSLSASVGDRVTITCKSSQSLLYTSSQKNYLAWYQQKPGKAPKLLIYWASTRESGVPSRFSGSGSGTDFTLTISSLQPEDFATYYCQQYYAYPWTFGQGTKVEIK
B19: unnamed (protein)
chain 1: QVTLRESGPALVKPTQTLTLTCTFSGFSLSTSGMSVGWIRQPPGKALEWLADIWWDDKKDYNPSLKSRLTISKDTSKNQVVLKVTNMDPADTATYYCARSMITNWYFDVWGAGTTVTVSS
chain 2: DIQMTQSPSTLSASVGDRVTITCKCQLSVGYMHWYQQKPGKAPKLLIYDTSKLASGVPSRFSGSGSGTEFTLTISSLQPDDFATYYCFQGSGYPFTFGGGTKLEIK

Assay: patients with anti-drug antibodies; higher = more immunogenic

Protein | patients with anti-drug antibodies
B1 | 6% and 6.6%
B2 | 25% and 9.5%
B3 | 4.7%
B4 | 1.7%
B5 | 1%
B6 | 4.7%
B7 | 40%
B8 | 0%
B9 | 0%
B10 | 3.5%
B11 | 0.5%
B12 | 2.5%
B13 | 1%
B14 | 2.8%
B15 | 4.5%
B16 | 9.8%
B17 | 5%
B18 | 11.9%
B19 | 1.1%
